Measurements as given in the supplement of paper PMC9732359.
± gives the uncertainty stated by the source.

Experiment: protein stability index of a GFP-peptide fusion (yeast GPS) (PSI 1-4); higher = more stable; sorted into four equal gates, so the index is relative within each strain
Method in brief: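 Tiled yeast protein peptides of 17 residues were each joined downstream of GFP, on plasmids that also express Cherry. The pooled library was maintained in yeast, and mid-log cultures in leucine-free medium were sorted into four equal gates on the GFP/Cherry ratio. Plasmids from every gate were amplified by PCR and sequenced on Illumina, with barcodes linking reads to strains. The protein stability index of a peptide is its gate-number-weighted read frequency summed over the gates.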

| Sequence | protein stability index (doa10∆) | protein stability index (pdr5∆) | protein stability index (san1∆) | protein stability index (ubr1∆) |
| --- | --- | --- | --- | --- |
| NQLSQTNKLLFKRVSQT [NUT1] | 1.92 ± 0.042 | 1.36 ± 0.037 | 1.37 ± 0.083 | 1.38 ± 0.035 |
| SRSTEKKNDMNTSAKNK [SIR4] | 2.52 ± 0.051 | 2.66 ± 0.05 | 2.9 ± 0.052 | 2.88 ± 0.047 |
| AAGNASSLPPGEILLPD [SNF5] | 3.15 ± 0.077 | 3.2 ± 0.063 | 3.1 ± 0.06 | 3.3 ± 0.053 |
| DRLILDLKLPPMDAYLK [SNU114] | 3.5 ± 0.14 | 3.34 ± 0.11 | 3.01 ± 0.063 | 3.17 ± 0.063 |
| FQSVQLNINNPNFLIMQ [SMC2] | 2.6 ± 0.06 | 2.62 ± 0.071 | 1.75 ± 0.062 | 2.1 ± 0.061 |
| SNLTIYPIYELLMSCPR [GRR1] | 1.72 ± 0.083 | 1.75 ± 0.071 | 1.89 ± 0.13 | 1.83 ± 0.056 |
| NNDVFTIGPYRARKDRM [SSN3] | 3.67 ± 0.27 | 3.11 ± 0.26 | 3.43 ± 0.14 | 3.32 ± 0.13 |
| ASEYIETLGLKYLGLKP [FAS1] | 3.27 ± 0.095 | 3.35 ± 0.093 | 3.26 ± 0.074 | 3.06 ± 0.089 |
| FKATIQILQGICKNCSA [RPO31] | 1.69 ± 0.044 | 1.77 ± 0.038 | 1.76 ± 0.061 | 1.79 ± 0.046 |
| ASHNEKDQDSQIELSCN [SRP72] | 2.85 ± 0.079 | 2.41 ± 0.079 | 2.9 ± 0.051 | 3.1 ± 0.058 |
| EAHNKALNQFKRKLLEH [RPT4] | 3.32 ± 0.27 | 3.14 ± 0.17 | 3.46 ± 0.12 | 3.4 ± 0.15 |
| SQFNGSGNGSNPNTNTN [PGD1] | 2.48 ± 0.072 | 2.68 ± 0.068 | 2.84 ± 0.076 | 2.89 ± 0.034 |
| PNLGPQLWLNSSGDFDD [GRR1] | 2.97 ± 0.16 | 3.16 ± 0.22 |  |  |
| DIWRVAGKFELLDRILP [SNF2] | 2.37 ± 0.086 | 2.65 ± 0.08 | 2.02 ± 0.14 | 2.54 ± 0.1 |
| NQYKLVFYQVTPEDADE [RPL22B] | 2.21 ± 0.1 | 2.7 ± 0.082 | 2.34 ± 0.059 | 2.14 ± 0.085 |
| CRLFFTELASKDNAIYN [YCS4] | 1.3 ± 0.077 | 1.51 ± 0.055 | 1.1 ± 0.16 | 1.32 ± 0.047 |
| DSVLQLASFEKTTDHLF [RPO31] | 2.63 ± 0.054 | 2.64 ± 0.04 | 2.83 ± 0.06 | 2.74 ± 0.041 |
| MNHDPFSWGRPADSTYG [PRE4] | 3.05 ± 0.086 | 3.28 ± 0.087 | 3.15 ± 0.057 | 3.22 ± 0.052 |
| SFQKIPLSRINENENFG [YML103C/NUP188] | 2.88 ± 0.15 | 3.12 ± 0.097 | 2.97 ± 0.079 | 3.24 ± 0.1 |
| LTDLDSPSEFVDVAIPC [RPS0A] | 2.77 ± 0.091 | 2.46 ± 0.073 | 2.31 ± 0.077 | 2.56 ± 0.063 |
| NIDINNEDENIQLIKIL [YJL041W/NSP1] | 2.52 ± 0.055 | 2.56 ± 0.071 | 2.99 ± 0.049 | 2.7 ± 0.042 |
| TIQYDPPETKLPYPTYW [SNF5] | 3.02 ± 0.049 | 2.93 ± 0.042 | 2.98 ± 0.039 | 2.94 ± 0.039 |
| LTGNQLPTPTPTEMEPD [SWI1] | 2.67 ± 0.051 | 2.92 ± 0.052 | 2.51 ± 0.062 | 2.85 ± 0.03 |
| PASDDILDNINHNGSAL [ITC1] | 2.9 ± 0.1 | 3.21 ± 0.096 | 3.06 ± 0.095 | 3.29 ± 0.078 |
| FKDVEHISFNFSMLQMA [BRR2] | 1.76 ± 0.076 | 1.59 ± 0.056 | 2.33 ± 0.15 | 2.03 ± 0.049 |
| LNRLLRLIVDPNIADYI [PRP8] | 1.83 ± 0.057 | 1.93 ± 0.05 | 1.64 ± 0.091 | 1.95 ± 0.044 |
| ETQPGCNEEQTLEAKIG [RPO31] | 3.21 ± 0.073 | 3.33 ± 0.069 | 2.96 ± 0.057 | 3.24 ± 0.053 |

| Sequence | protein stability index (doa10∆) | protein stability index (pdr5∆) | protein stability index (san1∆) | protein stability index (ubr1∆) |
| --- | --- | --- | --- | --- |
| NPMVPSSVNEDTFLPPP [PRP8] | 3.05 ± 0.058 | 3.32 ± 0.06 | 3.01 ± 0.04 | 3.1 ± 0.043 |
| TRAGGLGINLVTADTVI [ISW2] | 2.19 ± 0.061 | 2.13 ± 0.054 | 2.12 ± 0.1 | 2.89 ± 0.096 |
| EPSDLRSWTLTSEMKVL [YGL100W/SEH1] | 2.92 ± 0.049 | 2.77 ± 0.045 | 3.16 ± 0.052 | 3.37 ± 0.045 |
| AHEIIKREEKAMTIYWD [CDC53] | 2.03 ± 0.087 | 2.18 ± 0.064 |  | 2.2 ± 0.05 |
| PKFISEALAFTSLVANE [YDL116W/NUP84] | 1.23 ± 0.067 | 1.38 ± 0.078 | 1.31 ± 0.15 | 1.11 ± 0.17 |
| EERMGQIENLNEVCLEK [SMC4] | 3.48 ± 0.28 |  | 2.47 ± 0.27 |  |
| EKTFLHLPCTIEAEEAE [RPN8] | 1.56 ± 0.078 | 2.05 ± 0.071 | 2.48 ± 0.12 | 2.48 ± 0.07 |
| YKLNVRSNDPQSSLSKV [NUT2] | 3.21 ± 0.12 | 3.42 ± 0.12 | 3.33 ± 0.071 | 3.41 ± 0.095 |
| DANPSSQIIARNEEILR [SMC2] | 2.94 ± 0.08 | 2.79 ± 0.083 | 3.21 ± 0.076 | 2.76 ± 0.11 |
| QNPKLFQTIFSKQDLIH [SIN4] | 2.43 ± 0.058 | 2.02 ± 0.046 | 2.02 ± 0.085 | 2.02 ± 0.051 |
| LVLPPVVTSSVAESFTD [SNF2] | 2.13 ± 0.047 | 2.02 ± 0.057 | 2.39 ± 0.084 | 2.32 ± 0.053 |
| LFVCNKDPDVPLVLLQQ [POP3] | 2.57 ± 0.082 | 2.32 ± 0.077 | 2.26 ± 0.11 | 2.27 ± 0.058 |
| ITPMNDDQCMLITTYSK [SIN4] | 1.93 ± 0.064 | 2.41 ± 0.075 | 1.98 ± 0.22 | 1.99 ± 0.038 |
| EKIFHYGHVFLGITGLA [PUP3] | 1.17 ± 0.086 | 1.34 ± 0.094 | 1.15 ± 0.18 | 1.05 ± 0.074 |
| SAASIPPQQTYHFPIFN [RPN4] | 2.55 ± 0.044 | 2.83 ± 0.045 | 2.52 ± 0.035 | 2.68 ± 0.031 |
| RPLQKIMLLQLELGSCF [SIN4] | 1.41 ± 0.058 | 1.54 ± 0.065 | 1.79 ± 0.1 | 1.42 ± 0.061 |
| FNQEGDYNFKYGIPLEF [PRP8] | 3.14 ± 0.084 | 3.11 ± 0.077 | 1.92 ± 0.076 | 3.37 ± 0.077 |
| EVRILPRQRMEEVVSND [PRP8] | 2.52 ± 0.11 | 2.73 ± 0.084 | 2.69 ± 0.064 | 2.57 ± 0.084 |
| QNVTSETHSKKRKKEAN [ITC1] | 2.92 ± 0.075 | 3.02 ± 0.075 | 2.94 ± 0.041 | 3.08 ± 0.073 |
| HLLVQLQKNDVYAFKAK [REC8] | 3.15 ± 0.075 | 2.99 ± 0.064 | 2.73 ± 0.059 | 3.15 ± 0.074 |
| VNADDDDFMHSETREKE [RPB4] | 2.7 ± 0.089 | 2.61 ± 0.06 | 2.35 ± 0.089 | 1.99 ± 0.062 |
| SWRNITNLSGGEKTLSS [SMC4] | 3.37 ± 0.13 | 3.21 ± 0.078 | 2.81 ± 0.098 | 3.01 ± 0.11 |
| LQCHISGTTNFMRNGLL [UBP6] | 1.64 ± 0.1 | 1.66 ± 0.081 | 1.81 ± 0.15 | 2.31 ± 0.17 |
| VIQIVTGIFMAMHYSSN [COB] | 1.32 ± 0.078 | 1.16 ± 0.069 | 1.33 ± 0.17 | 1.46 ± 0.088 |
| GGFEYFLQPLLLVGLIK [NUT1] | 1.46 ± 0.056 | 1.52 ± 0.063 | 1.37 ± 0.11 | 1.87 ± 0.12 |
| HKSPNLSLMLESPNYCN [SRB4] | 2.28 ± 0.078 | 2.65 ± 0.1 | 2.64 ± 0.095 | 2.71 ± 0.06 |
